{"source": "patent US20220213198A1", "about": "“METHOD OF TREATMENT” (The Council of the Queensland Institute of Medical Research, priority 2019, published 2022)", "molecules": {"B1": {"name": "anti-MR1 antibody 26.5 (antibody, V domains shown)", "VH": "QVQLQQSGTELVRPGTSVKVSCKASGYAFSNYLIEWIKQRPGQGLEWIGVINPGSGGISYNEKFKGKATLTADKSSSTAYMQLSSLTSEDSAVYFCARWGYLYYYTMDHWGQGTSVTVSS", "VL": "DVLMTQTPLSLPVSLGDQASISCRSSQSIVQGSGNTFLDWYLQKPGQSPKVLIYKVSNRFSGVPARFSGSGSGTDFTLKISRVEAEDLGVYYCFQGSHVPYTFGGGTKLEIK"}, "B2": {"name": "26.5: anti-MR1 blocking antibody from hybridoma clone 26.5, IgG2a isotype; heavy chain SEQ ID NO: 4, light chain SEQ ID NO: 8 (antibody, listed as Mus musculus, V domains shown)", "VH": "MEWSRVFIFLLSITAGVHSQVQLQQSGTELVRPGTSVKVSCKASGYAFSNYLIEWIKQRPGQGLEWIGVINPGSGGISYNEKFKGKATLTADKSSSTAYMQLSSLTSEDSAVYFCARWGYLYYYTMDHWGQGTSVTVSS", "VL": "MKLPVRLLVLMFWIPASSSDVLMTQTPLSLPVSLGDQASISCRSSQSIVQGSGNTFLDWYLQKPGQSPKVLIYKVSNRFSGVPARFSGSGSGTDFTLKISRVEAEDLGVYYCFQGSHVPYTFGGGTKLEIK"}}, "key": {"MR1 / MAIT cells": {"test_system": "MR1 / MAIT cells", "conditions": "cited from earlier work; for effect on MAIT cell activation: background statement"}, "B16F10 melanoma cells": {"test_system": "B16F10 melanoma cells", "experiment": "B16F10 experimental lung metastasis model", "format": "in vivo, mouse", "method": "FIG. 2. […] (A) The schematic and timeline of expanding MAIT cells from splenocytes derived from C57BL/6 WT mice with IL-2 and 5-OP-RU, for sorting and adoptive transfer into tumor-bearing mice. (B, C) Groups of WT or MR1^−/− or Rag2cγ^−/− mice (n=5-6/group) were injected i.v. with (B) 1×10^5 or (C) 1×10^4 B16F10 melanoma cells. In some groups, sorted MAIT or T conventional cells (cT) (non-MAIT αβ^+ T cells) (2×10^5 cells/mouse) from C57BL/6 (B) WT or (C) TCRδ^−/− mice were i.v. injected into the indicated groups of mice one day before tumor inoculation. (C) One group of mice received i.v injection of media alone as a control. (B, C) On day 14 relative to tumor cell inoculation, lungs were harvested and the metastatic burden was quantified by counting colonies on the lung surface. Data presented as mean±SEM. (D) B16F10 or LWT1 melanoma cells were stimulated in vitro with DMSO or 5-OP-RU (100 nM) for 4 hours before cell surface MR1 expression was determined by flow cytometry. Groups of C57BL/6 WT or MR1^−/− mice (n=5-6/group) were i.v. injected with (E) 1×10^5 B16F10 or (F) 5×10^5 LWT1 cells melanoma cells pulsed with DMSO or 5-OP-RU (100 nM, 4 hours). Fourteen days later relative to tumor cell inoculation, lungs were harvested and the metastatic burden was quantified by counting colonies on the lung surface. Data presented as mean±SEM. Experiments performed once for (B, C, F) and three times for (D, E) with one representative experiment shown. Significant differences between groups as indicated by crossbars were determined using a one-way ANOVA followed by Tukey's post-hoc test (B, E, F), *p<0.05, **p<0.01, ****p<0.0001\nFIG. 5. […] (A) Generation of three independent B16F10 cell lines knocked out for MR1 using three different MR1 sgRNA. […] Empty vector transfected B16F10 cells were used as a positive control. (B, C) Groups of C57BL/6 WT, MR1^−/− or Rag2cγ^−/− mice (n=5-6/group) were i.v. injected with either (B) 1×10^5 B16F10 vector control cells or the indicated clone of B16F10 cells lacking MR1 (sgR1, sgR2, sgR3) or (C) 1×10^4 B16F10-MR1^KO cells (sgR3 clone). On day 14 relative to tumor cell inoculation, lungs were harvested and the metastatic burden was quantified by counting colonies on the lung surface. Data presented as mean±SEM. (D) Re-expression of GFP or GFP-MR1 expressing vector into B16F10-MR1^KO (sgR3 clone). MR1 surface expressions of these cells stimulated with or without 5-OP-RU were assessed by flow cytometry. (E) Groups of C57BL/6 WT mice (n=6/group) were i.v. injected with 1×10^5 B16F10-MR1^KO (sgR3 clone) transfected with empty GFP-expressing vector or MR1-GFP-expressing vector. (F) Groups of C57BL/6 WT or MR1^−/− mice were i.v. injected with parental B16F10 cells treated with vehicle (dd H2O) or AC-6-FP (10 μM, 18 hours). On day 14 relative to tumor cell injection, lungs were harvested and the metastatic burden was quantified by counting colonies on the lung surface. Data presented as mean±SEM. Experiments performed twice for (A-E) and once for (F). Significant differences between groups as indicated by crossbars were determined by a one-way ANOVA followed by Tukey's post-hoc test (A, F), or a Mann-Whitney test (C, E), *p<0.05, **p<0.01, ****p<0.0001.\nFIG. 6. […] Groups of C57BL/6 WT or MR1^−/− mice (n=5-6/group) were i.v. injected with (A, B) 1×10^5 B16F10, (C) 1×10^5 parental B16F10 or 2×10^5 B16F10-MR1^KO (sgR3 clone) melanoma cells and (D) 5×10^5 LWT1 melanoma cells or s.c injected with (E) 1×10^6 MCA1956 fibrosarcoma or (F) 1×10^6 SM1WT1 melanoma cells on day 0."}, "[1]": {"target": "T1, surface MR1 on mouse tumor cell lines (Mus musculus, UniProt Q8HWB0)", "T1 construct": "endogenous in cells", "T1 sequence (Q8HWB0 19-341)": "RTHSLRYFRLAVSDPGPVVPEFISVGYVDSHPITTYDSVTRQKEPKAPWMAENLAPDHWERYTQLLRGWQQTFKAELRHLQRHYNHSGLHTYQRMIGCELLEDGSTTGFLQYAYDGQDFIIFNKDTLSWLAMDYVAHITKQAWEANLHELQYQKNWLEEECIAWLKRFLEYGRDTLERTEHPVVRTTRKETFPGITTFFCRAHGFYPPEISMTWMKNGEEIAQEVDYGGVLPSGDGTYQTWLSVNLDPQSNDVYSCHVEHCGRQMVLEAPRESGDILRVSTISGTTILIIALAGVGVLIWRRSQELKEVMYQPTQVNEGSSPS", "T1 sequence (P01887 21-119 partner)": "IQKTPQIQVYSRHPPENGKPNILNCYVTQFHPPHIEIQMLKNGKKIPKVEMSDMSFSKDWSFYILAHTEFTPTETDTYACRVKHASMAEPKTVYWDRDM", "conditions": "stated as property of the ligand; cited from earlier work"}, "[2]": {"target": "T2, mouse MR1 (MHC class I-related protein 1) (mouse, UniProt Q8HWB0 19-341)", "T2 construct": "whole, on cells; also called surface MR1", "T2 sequence (Q8HWB0 19-341)": "as the sequence (Q8HWB0 19-341) above", "experiment": "flow cytometry on mouse tumor cell lines with or without 5-OP-RU", "excerpt": "(§1) MR1 mRNA transcripts are present in different tissues and cell lines from mice and humans. […] In contrast, whether mouse tumor cell lines express MR1 has not previously been examined. […] Basally, the level of MR1 was almost undetectable on the surface of all tumor cell lines examined (FIG. 2D). […] The kinetics of MR1 upregulation on B16F10 cells was similar to what was previously reported for human C1R cells (B-cell lymphoblastoid cell line) (McWilliam et al., 2016). […] Next, the impact of up-regulation of MR1 on B16F10 or LWT1 prior to i.v injection to WT or MR1−/− mice on the number of lung metastases was assessed."}, "[3]": {"target": "T3, human MR1 (MHC class I-related protein 1) (human, UniProt Q95460 23-341)", "T3 construct": "The assays used endogenous MR1 of human cell lines (flow cytometry) and of FFPE tumor sections (IHC); no signal peptide limits are stated", "T3 sequence (Q95460 23-341 limits assumed)": "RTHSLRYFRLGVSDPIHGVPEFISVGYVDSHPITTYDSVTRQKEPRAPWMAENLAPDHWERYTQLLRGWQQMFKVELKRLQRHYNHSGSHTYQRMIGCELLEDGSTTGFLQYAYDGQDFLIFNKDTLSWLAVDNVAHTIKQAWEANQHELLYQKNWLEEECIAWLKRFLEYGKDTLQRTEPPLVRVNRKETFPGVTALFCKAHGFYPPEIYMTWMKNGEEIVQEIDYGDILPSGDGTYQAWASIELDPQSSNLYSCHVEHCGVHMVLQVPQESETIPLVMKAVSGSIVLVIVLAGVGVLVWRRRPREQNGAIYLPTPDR", "experiment": "flow cytometry; human cell lines with or without 5-OP-RU (data not shown)"}, "human MR1": {"target": "human MR1 (Homo sapiens, UniProt Q95460)", "sequence (Q95460 23-341)": "as the sequence (Q95460 23-341 limits assumed) above", "sequence (P61769 21-119 partner)": "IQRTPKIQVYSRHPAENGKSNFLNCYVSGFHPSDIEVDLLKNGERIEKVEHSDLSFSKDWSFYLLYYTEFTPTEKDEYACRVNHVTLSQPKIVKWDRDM", "experiment": "Anti-MR1 reactivity with human MR1", "format": "binding", "conditions": "flow cytometry antibody", "excerpt": "as §1"}, "mouse MR1": {"target": "mouse MR1 (Mus musculus, UniProt Q8HWB0)", "sequence (Q8HWB0 19-341)": "as the sequence (Q8HWB0 19-341) above", "sequence (P01887 21-119 partner)": "as the sequence (P01887 21-119 partner) above", "experiment": "Anti-MR1 reactivity with mouse MR1", "format": "binding", "conditions": "flow cytometry antibody", "excerpt": "as §1"}}, "note": "Entries after “also recorded” stand apart in the source; their conditions may differ.", "data": [{"molecule": "Nc1nc2ncc(C=O)nc2c(=O)[nH]1", "note": "[6-FP, 6-formylpterin]", "values": [{"measurement": "effect on MAIT cell activation", "setting": "MR1 / MAIT cells", "value": "inhibit MAIT cell activation"}]}, {"molecule": "CC(=O)Nc1nc2ncc(C=O)nc2c(=O)[nH]1", "note": "[AC-6-FP, acetyl 6-formylpterin]", "values": [{"measurement": "effect on MAIT cell activation", "setting": "MR1 / MAIT cells", "value": "does not activate MAIT cells; also recorded: inhibit MAIT cell activation"}, {"measurement": "number of lung metastases", "setting": "B16F10 melanoma cells; WT mice injected with B16F10 pre-treated 10 μM 18 hours, vs vehicle-treated, day 14", "value": "decrease in metastases numbers"}, {"measurement": "number of lung metastases", "setting": "B16F10 melanoma cells; WT mice injected with B16F10 pre-treated 10 μM 18 hours, vs vehicle-treated, day 14, listed as Ac-6-FP", "value": "dramatically reduced"}, {"measurement": "MR1 expression", "setting": "[1]", "value": "upregulates MR1"}]}, {"molecule": "B1", "values": [{"measurement": "binding result", "setting": "[2]", "value": "binds"}, {"measurement": "binding result", "setting": "[3]", "value": "binds"}]}, {"molecule": "B2", "values": [{"measurement": "reactivity with human MR1", "setting": "human MR1", "value": "cross-reacts with both mouse and human MR1"}, {"measurement": "reactivity with mouse MR1", "setting": "mouse MR1", "value": "cross-reacts with both mouse and human MR1"}, {"measurement": "blocking of MAIT cell interaction with MR1", "setting": "MR1 / MAIT cells; stated as known", "value": "block MAIT cells from interacting with MR1"}, {"measurement": "number of lung metastases", "setting": "B16F10 melanoma cells; B16F10 tumor-bearing MR1-/- mice, antibody vs cIg", "value": "no further decrease"}, {"measurement": "B16F10 lung metastases", "setting": "B16F10 melanoma cells; WT mice, 250 μg/mouse i.p. days -1, 0, 3 and 7, vs cIg, day 14", "value": "effectively suppressed lung metastases"}, {"measurement": "suppression of B16F10 lung metastases, three vs four doses", "setting": "B16F10 melanoma cells; WT mice, 250 μg/mouse i.p., days -1, 0, 3 vs days -1, 0, 3 and 7", "value": "more effective when four doses"}]}]}
